Legend:
[1] = target: Chlamydomonas reinhardtii animal-like cryptochrome (CraCRY), wild type (Chlamydomonas reinhardtii); assay: SEC; concentration series, blue light 4 min; HEPES pH 7.4, 150 mM NaCl; Superdex 200 Increase 10/300, room temperature, in darkness; dimer fraction from peak areas
[2] = target: Chlamydomonas reinhardtii animal-like cryptochrome (CraCRY), wild type (Chlamydomonas reinhardtii); assay: SEC; dimer peak collected from SEC, kept in the dark, second round of SEC
[3] = target: GST-fused ROC15 (GARP), the active domain of Rhythm Of Clock 15; assay: GST pull-down, SDS-PAGE band intensity ratio; details: absence of reducing agents, read off a plot
[4] = target: CraCRY Y373E (Chlamydomonas reinhardtii); assay: SEC; time-lapse dimerization under blue light (450 nm, 100 W/m^2); 6 mg/mL in HEPES pH 7.4, 150 mM NaCl; Superdex 200 Increase 10/300, room temperature, in darkness; dimer fraction from peak areas
[5] = target: CraCRY Y373R (Chlamydomonas reinhardtii); assay: as above
[6] = lit (blue light), parent: est. 0.15

Substance	response ([3]; dark, parent: est. 0.03)	response [3, 6]	also measured
Chlamydomonas reinhardtii animal-like cryptochrome (CraCRY), wild type (natural protein)	–	–	dimer fraction (percent of elution peak area) [1]: 20%; stoichiometry N [2]: 2
Chlamydomonas reinhardtii animal-like cryptochrome (CraCRY), wild type Y373W	0.045	0.85	–
Chlamydomonas reinhardtii animal-like cryptochrome (CraCRY), wild type Y373W; N395C	0.05	0.58	–
CraCRY Y373E (natural protein)	–	–	dimer fraction (percent of elution peak area) [4]: 50%
CraCRY Y373R (natural protein)	–	–	dimer fraction (percent of elution peak area) [5]: 50%
